Biological target: rmGDF8 (R&D) (mouse (from the label rmGDF8 only)) (UniProt O08689)
Experiment: Biacore, trap captured on amine-coupled Protein A (CM5), rmGDF8 0.312-20 nM as analyte

Chain of UniProt O08689 (O08689 268-376 limits assumed): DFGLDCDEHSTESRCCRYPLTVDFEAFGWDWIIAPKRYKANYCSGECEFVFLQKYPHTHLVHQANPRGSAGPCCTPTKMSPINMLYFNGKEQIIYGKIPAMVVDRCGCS

With hGDF8(1-38, 43-64)-hFc (Fc fusion) the Kd was 0.0133 nM, the koff was 6.2e-05 s⁻¹ and the kon was 4.66e+06 M⁻¹ s⁻¹. The t½ was 3.1 h.
